Results from publication PMC5503513, “Tandem hnRNP A1 RNA recognition motifs act in concert to repress the splicing of survival motor neuron exon 7”.

Assays:
[1] = molecular target: UP1 r1R2 (UniProt P09651 1-196, F17A;F59A); experiment: ITC; ITC: 10 mM NaPi pH 6.5, 10 mM 2-mercaptoethanol, 30 C, protein titrated into RNA; NMR: 10 mM NaPi pH 6.5, 1 mM DTT (303 K stated for UP1-R140A:ISS-N1-u25g); settings: protein: recombinant; single strand
[2] = molecular target: T1, hnRNP A1 RRM2 (UniProt P09651 95-196); experiment: as above; settings: protein: recombinant; single strand
[3] = molecular target: hnRNP A1 RRM2 E176Q (UniProt P09651 95-196, E176Q); experiment: as above; settings: protein: recombinant; single strand
[4] = molecular target: T2, hnRNP A1 RRM2 R140A (UniProt P09651 95-196, R140A); experiment: ITC; range, no saturation; ITC: 10 mM NaPi pH 6.5, 10 mM 2-mercaptoethanol, 30 C, protein titrated into RNA; NMR: 10 mM NaPi pH 6.5, 1 mM DTT (303 K stated for UP1-R140A:ISS-N1-u25g); settings: protein: recombinant; single strand
[5] = molecular target: T3, hnRNP A1 RRM1 (UniProt P09651 2-97); experiment: as above; settings: protein: recombinant; single strand
[6] = molecular target: hnRNP A1 UP1 r1R2 (Homo sapiens, UniProt P09651 2-196, F17A;F59A); experiment: ITC; 10 mM sodium phosphate pH 6.5, 10 mM 2-mercaptoethanol, no added salt, 30 C; RNA 5-10 uM in the cell; 1:1 fit; settings: extra N-terminal Gly-Gly in PDB 2LYV (left out)
[7] = molecular target: hnRNP A1 UP1 R1r2 (Homo sapiens, UniProt P09651 2-196, F108A;F150A); experiment: as above; settings: extra N-terminal Gly-Gly in PDB 2LYV (left out)
[8] = molecular target: T2, hnRNP A1 RRM2 R140A; experiment: as above; settings: none in PDB 5MPL
[9] = molecular target: T3, hnRNP A1 RRM1; experiment: as above; settings: one extra N-terminal Ala in PDB 5MPG (left out)
[10] = molecular target: T4, UP1 R140A (UniProt P09651 1-196, R140A); experiment: NMR titration; 1 equivalent RNA; ITC: 10 mM NaPi pH 6.5, 10 mM 2-mercaptoethanol, 30 C, protein titrated into RNA; NMR: 10 mM NaPi pH 6.5, 1 mM DTT (303 K stated for UP1-R140A:ISS-N1-u25g); settings: protein: recombinant; single strand
[11] = molecular target: T5, UP1 (UniProt P09651 1-196); experiment: NMR titration; broad lines; ITC: 10 mM NaPi pH 6.5, 10 mM 2-mercaptoethanol, 30 C, protein titrated into RNA; NMR: 10 mM NaPi pH 6.5, 1 mM DTT (303 K stated for UP1-R140A:ISS-N1-u25g); settings: protein: recombinant; single strand
[12] = molecular target: T3, hnRNP A1 RRM1; experiment: NMR titration; intermediate exchange; ITC: 10 mM NaPi pH 6.5, 10 mM 2-mercaptoethanol, 30 C, protein titrated into RNA; NMR: 10 mM NaPi pH 6.5, 1 mM DTT (303 K stated for UP1-R140A:ISS-N1-u25g); settings: protein: recombinant; single strand
[13] = molecular target: T3, hnRNP A1 RRM1; experiment: NMR titration; fast exchange; ITC: 10 mM NaPi pH 6.5, 10 mM 2-mercaptoethanol, 30 C, protein titrated into RNA; NMR: 10 mM NaPi pH 6.5, 1 mM DTT (303 K stated for UP1-R140A:ISS-N1-u25g); settings: protein: recombinant; single strand
[14] = molecular target: T1, hnRNP A1 RRM2; experiment: as above; settings: protein: recombinant; single strand
[15] = molecular target: hnRNP A1 RRM2 Y167F (UniProt P09651 95-196, Y167F); experiment: ITC; ITC: 10 mM NaPi pH 6.5, 10 mM 2-mercaptoethanol, 30 C, protein titrated into RNA; NMR: 10 mM NaPi pH 6.5, 1 mM DTT (303 K stated for UP1-R140A:ISS-N1-u25g); settings: protein: recombinant; single strand
[16] = molecular target: hnRNP A1 RRM2 M186A (UniProt P09651 95-196, M186A); experiment: ITC; 10 mM sodium phosphate pH 6.5, 10 mM 2-mercaptoethanol, no added salt, 30 C; RNA 5-10 uM in the cell; 1:1 fit; settings: none in PDB 5MPL
[17] = molecular target: T5, UP1; experiment: NMR PRE; 1:1 complex; ITC: 10 mM NaPi pH 6.5, 10 mM 2-mercaptoethanol, 30 C, protein titrated into RNA; NMR: 10 mM NaPi pH 6.5, 1 mM DTT (303 K stated for UP1-R140A:ISS-N1-u25g); settings: protein: recombinant; label: IA-proxyl spin label on s4U18; single strand
[18] = molecular target: T4, UP1 R140A; experiment: as above; settings: protein: recombinant; label: IA-proxyl spin label on s4U18; single strand
[19] = molecular target: T2, hnRNP A1 RRM2 R140A; experiment: ITC; ITC: 10 mM NaPi pH 6.5, 10 mM 2-mercaptoethanol, 30 C, protein titrated into RNA; NMR: 10 mM NaPi pH 6.5, 1 mM DTT (303 K stated for UP1-R140A:ISS-N1-u25g); settings: protein: recombinant; single strand
[20] = molecular target: T3, hnRNP A1 RRM1; experiment: as above; settings: protein: recombinant; single strand
[21] = molecular target: T4, UP1 R140A; experiment: NMR (intermolecular NOEs, structural model); 1:1 complex; RRM2 on 5' motif, RRM1 on 3' motif; ITC: 10 mM NaPi pH 6.5, 10 mM 2-mercaptoethanol, 30 C, protein titrated into RNA; NMR: 10 mM NaPi pH 6.5, 1 mM DTT (303 K stated for UP1-R140A:ISS-N1-u25g); settings: protein: recombinant; single strand
[22] = molecular target: T5, UP1; experiment: NMR titration; intermediate exchange, both RRMs; ITC: 10 mM NaPi pH 6.5, 10 mM 2-mercaptoethanol, 30 C, protein titrated into RNA; NMR: 10 mM NaPi pH 6.5, 1 mM DTT (303 K stated for UP1-R140A:ISS-N1-u25g); settings: protein: recombinant; single strand
[23] = molecular target: hnRNP A1 RRM1 F23A (UniProt P09651 2-97, F23A); experiment: ITC; ITC: 10 mM NaPi pH 6.5, 10 mM 2-mercaptoethanol, 30 C, protein titrated into RNA; NMR: 10 mM NaPi pH 6.5, 1 mM DTT (303 K stated for UP1-R140A:ISS-N1-u25g); settings: protein: recombinant; single strand
hnRNP A1 RRM1 F23A, sequence (P09651 2-97 F23A): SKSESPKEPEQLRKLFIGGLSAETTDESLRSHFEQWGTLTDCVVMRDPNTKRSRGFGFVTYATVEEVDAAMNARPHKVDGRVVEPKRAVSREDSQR

T2 sequence (P09651 95-196 R140A): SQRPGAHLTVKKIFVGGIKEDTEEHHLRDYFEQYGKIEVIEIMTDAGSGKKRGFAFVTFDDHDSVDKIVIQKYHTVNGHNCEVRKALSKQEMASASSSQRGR
UP1 r1R2, sequence (P09651 1-196 F17A/F59A): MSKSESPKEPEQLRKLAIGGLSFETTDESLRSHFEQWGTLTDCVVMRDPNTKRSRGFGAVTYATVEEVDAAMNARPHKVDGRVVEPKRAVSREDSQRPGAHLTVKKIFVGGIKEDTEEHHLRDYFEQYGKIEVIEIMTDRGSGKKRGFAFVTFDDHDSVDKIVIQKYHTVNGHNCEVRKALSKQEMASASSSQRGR
hnRNP A1 RRM2 E176Q, sequence (P09651 95-196 E176Q): as the sequence (P09651 95-196 R140A) above, with A46R, E82Q counted along it
T1 sequence (P09651 95-196): as the sequence (P09651 95-196 R140A) above, with A46R counted along it
hnRNP A1 UP1 R1r2, sequence (P09651 2-196 F108A/F150A): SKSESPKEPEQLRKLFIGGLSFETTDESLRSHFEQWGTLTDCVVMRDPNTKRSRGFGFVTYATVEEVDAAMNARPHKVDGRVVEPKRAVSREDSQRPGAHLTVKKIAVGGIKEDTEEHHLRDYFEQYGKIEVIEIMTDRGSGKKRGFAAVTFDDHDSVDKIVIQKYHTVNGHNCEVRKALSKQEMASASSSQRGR
T4 sequence (P09651 1-196 R140A): as the sequence (P09651 1-196 F17A/F59A) above, with A17F, A59F, R140A counted along it
hnRNP A1 UP1 r1R2, sequence (P09651 2-196 F17A/F59A): as the sequence (P09651 2-196 F108A/F150A) above, with F16A, F58A, A107F, A149F counted along it
T3 sequence (P09651 2-97): as the sequence (P09651 2-97 F23A) above, with A22F counted along it
T5 sequence (P09651 1-196): as the sequence (P09651 1-196 F17A/F59A) above, with A17F, A59F counted along it
hnRNP A1 RRM2 Y167F, sequence (P09651 95-196 Y167F): as the sequence (P09651 95-196 R140A) above, with A46R, Y73F counted along it
hnRNP A1 RRM2 M186A, sequence (P09651 95-196 M186A): as the sequence (P09651 95-196 R140A) above, with A46R, M92A counted along it

B1: UAAGUU (ssRNA)
RNA: UAAGUU
Kd [1]: 685 ± 42 nM | Kd [2]: 543 ± 31 nM | Kd [3]: 429 ± 27 nM | Kd [4]: ~2240 nM | Kd [5]: ~5200 nM | Kd [6]: 685 ± 42 nM | Kd [7]: 658 ± 44 nM | Kd [8]: ~3300 nM | Kd [9]: ~4610 nM

B2: UGAGUU (ssRNA)
RNA: UGAGUU
Kd [1]: 625 ± 41 nM | Kd [2]: 546 ± 31 nM | Kd [3]: 324 ± 20 nM | Kd [4]: ~2240 nM | Kd [5]: ~5200 nM | Kd [6]: 625 ± 41 nM | Kd [7]: 654 ± 50 nM | Kd [8]: ~2650 nM | Kd [9]: ~3450 nM

B3: ISS-N1-14g25g (ssRNA)
RNA: GGACCAGGAUUAUGAAAGGGC
binding result [10]: binds | binding result [11]: binds

B4: CGUAGGU (ssRNA)
RNA: CGUAGGU
binding result [12]: binds

B5: CAGCAU (ssRNA)
RNA: CAGCAU
binding result [13]: binds | binding result [14]: binds

B6: ISS-N1-c14g (ssRNA)
RNA: GGACCAGGAUUAUGAAAGUGC
binding result [10]: binds

B7: UUAGGGA (ssRNA)
RNA: UUAGGGA
binding result [13]: binds | binding result [14]: binds

B8: UCAGUU (ssRNA)
RNA: UCAGUU
Kd [1]: 637 ± 39 nM | Kd [2]: 541 ± 33 nM | Kd [3]: 237 ± 15 nM | Kd [15]: 513 ± 30 nM | Kd [4]: ~2240 nM | Kd [16]: 1630 nM | Kd [6]: 637 ± 39 nM | Kd [7]: 578 ± 40 nM | Kd [8]: ~2490 nM | Kd [9]: > 10000 nM

B9: modified ISS-N1 (spin-labeled) (XNA)
RNA: ACCAGCAUUAUGAAAGGUA
modifications: 4-thio-U at position 18
binding result [17]: binds | binding result [18]: binds

B10: UGAAAGU (ssRNA)
RNA: UGAAAGU
binding result [13]: binds | binding result [14]: binds

B11: UUUUAGGU (ssRNA)
RNA: UUUUAGGU
binding result [12]: binds

B12: UCAGGUC (ssRNA)
RNA: UCAGGUC
Kd [1]: 178 ± 11 nM | Kd [19]: 862 ± 47 nM | Kd [20]: 543 ± 33 nM | Kd [2]: 129 ± 11 nM | Kd [3]: 132 ± 29 nM | Kd [6]: 178 ± 11 nM | Kd [7]: 171 ± 12 nM | Kd [8]: 862 ± 47 nM

B13: ISS-N1-u25g (ssRNA)
RNA: GGACCAGCAUUAUGAAAGGGA
binding result [21]: binds

B14: ISS-N1 WT (ssRNA)
RNA: GGACCAGCAUUAUGAAAGUGA
binding result [10]: binds | binding result [22]: binds

B15: UUUUAGGUC (ssRNA)
RNA: UUUUAGGUC
Kd [20]: 159 ± 9 nM | Kd [23]: 130 ± 8 nM

B16: UAGGUC (ssRNA)
RNA: UAGGUC
Kd [19]: 685 ± 40 nM | Kd [20]: 625 ± 35 nM | Kd [2]: 98 ± 8 nM | Kd [3]: 227 ± 14 nM | Kd [23]: 602 ± 34 nM | Kd [8]: 685 ± 40 nM

B17: UCAGGG (ssRNA)
RNA: UCAGGG
binding result [14]: binds
